# Patent US20230357411A1
# Residue numbers refer to the chain shown, from its start.
# B1: humanized anti-TrkA monoclonal antibody H1L1-IgG4 (antibody)
# heavy: EVQLLESGGGLVQPGGSLKLSCKASGYAFTNYWLGWMKQRPGHGLEWIGDFYPRTGNTFYNENFKGKVTLTADKSSNTAYMQLSSLTSEDSAVYLCARAGTGFDYWGQGTTLTVSSASTKGPSVFPLAPCSRSTSESTAALGCLVKDYFPEPVTVSWNSGALTSGVHTFPAVLQSSGLYSLSSVVTVPSSSLGTKTYTCNVDHKPSNTKVDKRVESKYGPPCPPCPAPEAAGGPSVFLFPPKPKDTLMISRTPEVTCVVVDVSQEDPEVQFNWYVDGVEVHNAKTKPREEQFNSTYRVVSVLTVLHQDWLNGKEYKCKVSNKGLPSSIEKTISKAKGQPREPQVYTLPPSQEEMTKNQVSLTCLVKGFYPSDIAVEWESNGQPENNYKTTPPVLDSDGSFFLYSKLTVDKSRWQEGNVFSCSVMHEALHNHYTQKSLSLSLG
# light: EIVMTQSPATLSLSVGERVTLSCKASENVGGYVSWYQQKPDQSPKLLIYGASSRHTGVPDRFTGSGSETDFTLTISSVQAEDLAAYHCGQNYIYPFTFGGGTKLEIKRTVAAPSVFIFPPSDEQLKSGTASVVCLLNNFYPREAKVQWKVDNALQSGNSQESVTEQDSKDSTYSLSSTLTLSKADYEKHKVYACEVTHQGLSSPVTKSFNRGEC
# B2: human-mouse chimeric anti-TrkA monoclonal antibody 23E12 (H0L0-IgG4) (antibody)
# heavy: B1 heavy with E1Q, L5Q, E6Q, G9A, G10E, Q13R, G16T, L18V, L20I
# light: B1 light with E1S, A9K, T10S, L11M, L13M
# B3: humanized anti-TrkA monoclonal antibody H3L1-IgG4 (antibody, V domains shown)
# VH: EVQLLESGGGLVQPGGSLKLSCKASGYAFTNYWLGWMKQRPGHGLEWIGDFYPRTGNTFYNENFKGQVTMSVDKSITTAYLQWNSLKASDTAMYYCARAGTGFDYWGQGTTLTVSS
# VL: EIVMTQSPATLSLSVGERVTLSCKASENVGGYVSWYQQKPDQSPKLLIYGASSRHTGVPDRFTGSGSETDFTLTISSVQAEDLAAYHCGQNYIYPFTFGGGTKLEIKR
# B4: humanized anti-TrkA monoclonal antibody H3L2-IgG4 (antibody, V domains shown)
# VH: B3 VH
# VL: B3 VL with H55A
# Molecular target: TrKA (ELISA antigen, target Human-TrKA) (human) (UniProt P04629)
# Sequence (P04629 33-423 limits assumed): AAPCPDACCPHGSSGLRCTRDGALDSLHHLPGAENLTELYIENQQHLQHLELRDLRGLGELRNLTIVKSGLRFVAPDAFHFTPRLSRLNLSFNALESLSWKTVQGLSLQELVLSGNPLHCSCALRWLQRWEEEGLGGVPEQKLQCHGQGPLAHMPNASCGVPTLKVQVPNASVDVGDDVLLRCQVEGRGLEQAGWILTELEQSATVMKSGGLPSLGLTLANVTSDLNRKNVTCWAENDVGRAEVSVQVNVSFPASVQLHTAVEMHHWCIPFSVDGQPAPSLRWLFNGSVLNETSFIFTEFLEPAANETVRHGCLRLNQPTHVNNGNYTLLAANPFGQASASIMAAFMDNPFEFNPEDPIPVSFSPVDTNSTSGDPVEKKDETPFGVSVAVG
# Experiment: ELISA, antibody 0 to 20 µg/mL, plateau
row,Binder,OD450
1,B1,3
2,B2,3
3,B3,3
4,B4,3
